Measured values published in the supplement of paper PMC12764529.
± gives the half width of the 95% confidence interval.

Assay: folding stability dG unfold (combined trypsin and chymotrypsin); higher = more stable
Method: (§1)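 Folding stability of de novo designed mini-proteins (<80 aa, no Cys; designed by TrROS, TrMRF, ProteinMPNN and the joint model) was measured by cDNA display proteolysis with trypsin and chymotrypsin. Each protease was used at 11 concentrations in a threefold dilution series plus a no-protease condition. K50 was inferred by Bayesian fitting of sequencing counts, and dG unfold was derived against a sequence-predicted unfolded-state K50 (Tsuboyama et al. method). Sequences shown include variable-length N-terminal GS-type padding (SAGGSAGG...) inside a display construct carrying a PA tag. Rows were kept only if the AF2 dimer inter-PAE was >15, to exclude likely homo-oligomers.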

Row | Sequence | folding stability dG unfold
1 | SAGGSAGGSSMTPVSSTRSSPSNSVTYTTSRIPIDPSPGKVLNVTTTYSPDPSVTTTTTTVEPSSAGGSAGG [r6_13_JUSTAS] | < -1 kcal/mol
2 | SASVVDLETDGSMSVEEVVERFKKENPNVKEVKVTTEALPDEPKYRITLTITEDKGKTEENLKKTKELKSAG [r14_645_JUSTAS] | < -1 kcal/mol
3 | SAGGPVYFRIKVEQRRPDPENGEPERREQTVSIPFEYDPDNGMPADEFAEELAKTLPPGIREVEIEPFSAGG [r13_335_TrROS] | < -1 kcal/mol
4 | SAGGPDDYPIRIAVYPPDGEIKEEITIPNNWTIKYFPNDDPRIMIQDPGNGETVPVKTPEDIKDLIQSAGGS [r8_232_TrROS] | < -1 kcal/mol
5 | SAGGSVLPPDAVVYGTETRPFPNGETVEVERERRFPPRPPAPAGVLVEYPDGTVVPAPSPEEAAALLSAGGS [r16_580_JUSTAS] | < -1 kcal/mol
6 | SAGGSAGGSAGMKIFKSKEEAKKAAGPPVELKVKKVPPGSIGKGDPNDTAYLVELKPKEKSAGGSAGGSAGG [r11_168_TrMRF] | < -1 kcal/mol
7 | SPNVRPYNFKIRDPNKEIEVPVWQPPDGPPMVNIKFKDPGKEVEIPFPMDDPEELLEDFAPDGYKIELTWSA [r9_384_TrROS] | < -1 kcal/mol
8 | SAGGDNVKLRFYDPNGRLKIDEINPENGNIKVEYEGPGKPRERTVDADPDEAIDEIADNFPFPLEIEKSAGG [r13_141_TrROS] | < -1 kcal/mol
9 | SAGGSATIKIPPGMDMEIDDVELNPDDKTVEVEITFGDGPMKARITPNGQKEIEMPNGQPFTIPIDSAGGSA [r15_111_TrROS] | < -1 kcal/mol
10 | SAGGIPLKEIKEMIENDPGETWTAQIYRMPPGPNGQMQQQTIEFPIKDPEDALDNLPPGYMVHVEPRSAGGS [r16_116_TrROS] | < -1 kcal/mol
11 | SAGGSANFKIRMPNGRPMDIQPDPEGETWVIRMPGGHIIPIEIKDGKLKDIKILPGMPPNWSIEPVSAGGSA [r15_709_TrROS] | < -1 kcal/mol
12 | SAGGFKPRTINIPAKPGALRNILNDLREKSPNYMVHVTNPDKGKPRHWPLDDLKDMPGPFEFRVMKMPKSAG [r5_437_TrROS] | < -1 kcal/mol
13 | SAGGSAGGSAGSPAAERIAKYMEKQGGDNIDIEPVGPRPGYVRIKMKNNRPITIPLKEGDSAGGSAGGSAGG [r11_765_TrROS] | < -1 kcal/mol

Assay: folding stability dG unfold from chymotrypsin proteolysis; higher = more stable
Method: as §1

Row | Sequence | folding stability dG unfold
14 | SAGGKPKITITIEKLPDGTIRITITYEDGSKVEIEAKVTYDPKTNTLTIEVTIKINGKTYKITITFKSAGGS [r16_391_TrROS_Hall] | 4.4 ± 0.29 kcal/mol
15 | SAGGSAGGSAGGSMVITIEYTGSVEDLIKKLKEEGLDVKVLEVKFDPKTGKYTVTLEVKSAGGSAGGSAGGS [r4_315_JUSTAS] | 4.22 ± 0.2 kcal/mol
16 | SAGGSAGGSAGGSMETVEVTEVSFDPSKGTRFVKTTVTRKDEKGNWVEKEEWITEPVLGSAGGSAGGSAGGS [r4_85_JUSTAS] | 0.338 ± 0.059 kcal/mol
17 | SAGGMKTSPIGTFPLPDPSNGALADTVTIENPKEIIKKSNKEIVKVTVTTTAPDGTPTTTDEIIIIKNSAGG [r13_735_JUSTAS] | 0.548 ± 0.066 kcal/mol
18 | SAGMDEYIRELIEKLPSENPSTSPITYRDKNIEAVTYYPSTNTTTFHFPGGEVISASPSTSIEEILKELSAG [r14_59_JUSTAS] | 0.198 ± 0.22 kcal/mol
19 | SAGGSAGGEETLRVTEITDVEKPDNGPRIKFPIEHDGKKKPIDINVPPDDLKPGDTIPLEEILKSAGGSAGG [r6_585_TrROS] | 0.847 ± 0.072 kcal/mol
20 | SAGGSAGGSGMVTVKRTVPPGNVEEAVNALTPPNLTITDVKVTELPDSVEVTVTVEDPFPGLVSAGGSAGGS [r12_445_JUSTAS] | 0.587 ± 0.034 kcal/mol
21 | SAGMEEILEAAREAIEAGLTVRIEVTFKDGKKEEIEIEVESLEELLEALEKLDEIESVKIEVLAPGEEPSAG [r5_956_TrROS_Hall] | 2.95 ± 0.15 kcal/mol
22 | SAGGSAGGSAGGSAVEVDPNGGVTRTRYPGGAVRLETVSPTPDGSLATRTEEVELPGLASAGGSAGGSAGGS [r4_248_JUSTAS] | 0.871 ± 0.013 kcal/mol
23 | SAGGSAGGSAGGVYKVEIEIGDAPRTLVVENAAPEEIRAFLEHPEVRRARVEPLSPEELGSAGGSAGGSAGG [r7_502_TrMRF] | 0.216 ± 0.12 kcal/mol
24 | SAGGSAGGSAGKLKVEIEERNGKLVLKVKLELEPEPEPVEVEKKVEVKTETKMSLEELKKSAGGSAGGSAGG [r17_51_TrROS_Hall] | 0.952 ± 0.058 kcal/mol
25 | SAGGSAGGSAGGDVLLFVDESTGLADARALAEALGLKDVVIVPVPPAKPVVLNADGSPTSAGGSAGGSAGGS [r10_1083_TrMRF] | 0.63 ± 0.052 kcal/mol
26 | SAGGSAGGSAGGGEYAKIKIKNPINPKYKEIEIEIPSNKKNVIINATGSGNATITEIKLESAGGSAGGSAGG [r7_687_TrMRF] | 0.177 ± 0.27 kcal/mol
27 | SAGGSAPVIVKEASLEEIKELKKKGVKKIILVEKNPEIAEKIKKEFEKEDDIPIETVSEEEAKKLKSAGGSA [r15_243_TrMRF] | -0.294 ± 0.13 kcal/mol
28 | SAGGSAGGSAGGEPDPKFHVEYDEEEGRYKVKIYNPNNNKKEEIEVPVPPGQPKEEAIKSAGGSAGGSAGGS [r10_676_TrROS] | 0.0247 ± 0.11 kcal/mol
29 | SAGGSAGGMIVELPTPDDETLTLTTRPTPDGSVPVTATRLTPDSTEVTTVSTADPAVVELVAAASAGGSAGG [r6_607_JUSTAS] | -0.448 ± 0.26 kcal/mol
30 | SAGGSAGGSAMGPPVRRVTITLSDGTRYEVDVAPDDSVAAVRAPLAAHPDVAAVTELTVEPSAGGSAGGSAG [r3_308_JUSTAS] | 0.99 ± 0.044 kcal/mol
31 | SAGGSAGGSAGGSDSSVITFDIPVSEYPAKIKLSPETKTMTVVSTSPEGTVKVAIERPGSAGGSAGGSAGGS [r10_352_JUSTAS] | -0.297 ± 0.14 kcal/mol
32 | SAGGSAGGSAGGPIRIKNIENVNPDDGMFTVDVEFPDGKNHTYMIPPDQLEEPGDEIEIPSAGGSAGGSAGG [r7_117_TrROS] | -0.696 ± 0.54 kcal/mol
33 | SAGGSAGGSAGGPVIPKDVKVKVIFSNGEVAELEVDSVDDLQKKLNVPIPPNVNLVVSRGSAGGSAGGSAGG [r7_223_TrMRF] | -0.759 ± 0.37 kcal/mol
34 | SAGGSAGGSAGGKTITLDELRENFPPGYQIRDNNGKQHRINANEPIEEGDPIEIVSKDDISAGGSAGGSAGG [r7_507_TrROS] | -0.206 ± 0.17 kcal/mol
35 | SAGDIEIEVEELGEGYKKITIRIKVDSIEEAIKEVEEIVRDFFSEEAEIVEIKIDPEKGIVEAVVIVPESAG [r5_810_TrMRF] | 3.39 ± 0.4 kcal/mol
36 | SLEELAKAIAEKLGLPVEDVEVRVEKEVDEETGEERLRVTVLIKVDGKTYLIEIDLETGEIVEIKPLEDLSA [r9_1219_TrROS_Hall] | 4.68 ± 0.23 kcal/mol
